Five molecules from paper PMC8034648, “Oligomeric complexes formed by Redβ single strand annealing protein in its different DNA bound states” can be followed below.

In series [1] the target is T1, Redβ single strand annealing protein (bacteriophage λ, UniProt P03698).
T1 sequence: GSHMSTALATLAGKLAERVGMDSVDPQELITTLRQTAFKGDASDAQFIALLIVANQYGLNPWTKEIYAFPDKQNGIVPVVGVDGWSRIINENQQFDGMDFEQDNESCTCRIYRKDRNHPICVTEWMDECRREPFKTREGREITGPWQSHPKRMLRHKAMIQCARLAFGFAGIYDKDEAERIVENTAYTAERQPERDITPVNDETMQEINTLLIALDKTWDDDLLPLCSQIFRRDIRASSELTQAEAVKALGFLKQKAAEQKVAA
Nature of the series: EMSA; strands added sequentially, either order; EMSA: 10 uM Redβ, 50 uM nt DNA, 37 C, in PBS, or 20 mM Tris-HCl pH 7.5/10 mM NaCl/10 mM MgCl2, or 50 mM ammonium acetate pH 7.0; SEC-MALS: PBS, complexes formed. The note with it: protein: recombinant; tags: N-terminal GSH left after thrombin removal of 6xHis; chain copies: 11; label: 5'-Cy5 on strand 1, 5'-Cy3 on strand 2; 5' overhangs 1 nt (49 bp). Background: A gel shift assay detects complexes by their altered migration in electrophoresis.

Series [2] addresses T1, Redβ single strand annealing protein. Kind of series: SEC-MALS; PBS; 653 kDa, n=21.1; EMSA: 10 uM Redβ, 50 uM nt DNA, 37 C, in PBS, or 20 mM Tris-HCl pH 7.5/10 mM NaCl/10 mM MgCl2, or 50 mM ammonium acetate pH 7.0; SEC-MALS: PBS, complexes formed. The note with it: protein: recombinant; tags: N-terminal GSH left after thrombin removal of 6xHis; chain copies: 11. For orientation: SEC sorts molecules by how far they enter the pores of the column.

Series [3] shares this target. Kind of series: SEC-MALS; strands added sequentially, PBS; 591 kDa, n=18.2; EMSA: 10 uM Redβ, 50 uM nt DNA, 37 C, in PBS, or 20 mM Tris-HCl pH 7.5/10 mM NaCl/10 mM MgCl2, or 50 mM ammonium acetate pH 7.0; SEC-MALS: PBS, complexes formed. Particulars: protein: recombinant; tags: N-terminal GSH left after thrombin removal of 6xHis; chain copies: 11; blunt.
The target is the same in series [4]. Nature of the series: native MS; strands added sequentially, 1 uM Redβ; 22 subunits, one copy of each strand; EMSA: 10 uM Redβ, 50 uM nt DNA, 37 C, in PBS, or 20 mM Tris-HCl pH 7.5/10 mM NaCl/10 mM MgCl2, or 50 mM ammonium acetate pH 7.0; SEC-MALS: PBS, complexes formed. The note with it: protein: recombinant; tags: N-terminal GSH left after thrombin removal of 6xHis; chain copies: 11; 3' overhang 4 nt on strand 2.

Series [5] shares this target. Nature of the series: SEC-MALS; strands added sequentially, PBS; 358 kDa, n=11.3; EMSA: 10 uM Redβ, 50 uM nt DNA, 37 C, in PBS, or 20 mM Tris-HCl pH 7.5/10 mM NaCl/10 mM MgCl2, or 50 mM ammonium acetate pH 7.0; SEC-MALS: PBS, complexes formed. Particulars: protein: recombinant; tags: N-terminal GSH left after thrombin removal of 6xHis; chain copies: 11; blunt.

B1: Cy5 50mer:Cy3 50mer (annealed sequentially or pre-formed) (dsDNA)
DNA 1: CCATCCGCAAAAATCGAGCTATGCAGGGCGATTCTGCTCTAAGCCATCCG
DNA 2: GCGGATGGCTTAGAGCAGAATCGCCCTGCATAGCTCGATTTTTGCGGATG
With B1, the binding result in series [1] was “binds”.

B2: 83- (ssDNA)
DNA: TTGCATATTTAAAACATGTTGAGCTACAGCACCAGATTCAGCAATTAAGCTCTAAGCCATCCGCAAAAATGACCTCTTATCAA
B2: in series [2], the binding result was “binds”.

B3: 83-:83+ (dsDNA)
DNA 1: B2 DNA
DNA 2: TTGATAAGAGGTCATTTTTGCGGATGGCTTAGAGCTTAATTGCTGAATCTGGTGCTGTAGCTCAACATGTTTTAAATATGCAA
As to B3, the binding result in series [3] is recorded as “binds”.

B4: 83-:87+ (dsDNA)
DNA 1: B2 DNA
DNA 2: TTGATAAGAGGTCATTTTTGCGGATGGCTTAGAGCTTAATTGCTGAATCTGGTGCTGTAGCTCAACATGTTTTAAATATGCAATGAC
As to B4, the binding result in series [4] is recorded as “binds”.

B5: dT38:dA38 (dsDNA)
DNA 1: TTTTTTTTTTTTTTTTTTTTTTTTTTTTTTTTTTTTTT
DNA 2: AAAAAAAAAAAAAAAAAAAAAAAAAAAAAAAAAAAAAA
B5: the binding result in series [5] is reported as “binds”.
